According to paper PMC3322551:

target: porcine plasminogen (porcine); test: SPR

Point of comparison: “F3_(P146/J), recombinant C-terminal fragment of P146 (MHJ_0663) of Mycoplasma hyopneumoniae strain J (domain or fragment)”, Kd 39 nM. Against it:
- F3_(P146/JΔK), strain J F3_(P146) without its C-terminal lysine (domain or fragment) — 5.4-fold higher, 210 nM
- F3_(P146/232ΔR), strain 232 F3_(P146) without its C-terminal arginine (domain or fragment) — 5.6-fold higher, 220 nM
- F3_(P146/232), recombinant C-terminal fragment of P146 (Mhp684) of Mycoplasma hyopneumoniae strain 232 (domain or fragment) — within 1.5-fold, 46 nM

Point of comparison: “F3_(P146/J), recombinant C-terminal fragment of P146 (MHJ_0663) of Mycoplasma hyopneumoniae strain J (domain or fragment)”, kon 46000 M⁻¹ s⁻¹. Against it:
- F3_(P146/JΔK), strain J F3_(P146) without its C-terminal lysine (domain or fragment) — 3.5-fold lower, 13000 M⁻¹ s⁻¹
- F3_(P146/232ΔR), strain 232 F3_(P146) without its C-terminal arginine (domain or fragment) — 3.5-fold lower, 13000 M⁻¹ s⁻¹
- F3_(P146/232), recombinant C-terminal fragment of P146 (Mhp684) of Mycoplasma hyopneumoniae strain 232 (domain or fragment) — 3.7-fold higher, 170000 M⁻¹ s⁻¹
